From patent US20260234246A1 (CAEDO ONCOLOGY, published 2026)

Legend:
[1] = biological target: T1, human CD47 on the surface of cells (human cancer cell lines and human red blood cells) (human, UniProt Q08722 19-323); assay: flow cytometry, FITC-mCO-1 on HT-1376 cells
T1 construct: Native CD47 of human cell lines (Jurkat, Reh, CCRF-CEM and others) and of RBCs from healthy donors; also called cell-surface CD47

[2] = biological target: T1, human CD47 on the surface of cells …; assay: flow cytometry, FITC-mCO-1 on SW1088 cells
Experimental: (§1) PBS-washed cancer cell lines or RBCs were pelleted and washed with washing buffer (3% (w/v) BSA, 1% (w/v) sodium azide in PBS) and incubated with Human BD Fc Block for 10 minutes before being plated into a round-bottom 96 well plate (2.5×10⁵ cells per well). Antibodies were conjugated with FITC using the FITC conjugation kit from Abcam. […] All samples were prepared in duplicates. Cells were washed three times and resuspended in cold washing buffer. Cells were kept on ice until analyses by flow cytometry. Excitation wavelength FITC: 488 nm, detection: 530/30 nm.

[3] = biological target: T1, human CD47 on the surface of cells …; assay: flow cytometry, FITC-mCO-1 on HT-1197 cells
Experimental: as §1

[4] = biological target: T1, human CD47 on the surface of cells …; assay: flow cytometry, FITC-mCO-1 on CCRF-CEM cells
[5] = biological target: T1, human CD47 on the surface of cells …; assay: flow cytometry, FITC-mCO-1 on T24 cells
Experimental: as §1

[6] = biological target: T1, human CD47 on the surface of cells …; assay: flow cytometry, FITC-mCO-1 on U-87-MG cells
[7] = biological target: T1, human CD47 on the surface of cells …; assay: flow cytometry, FITC-mCO-1 on TCCSUP cells
Experimental: as §1

[8] = biological target: T1, human CD47 on the surface of cells …; assay: flow cytometry, FITC-mCO-1 on A-172 cells
[9] = biological target: T1, human CD47 on the surface of cells …; assay: flow cytometry, FITC-mCO-1 on UM-UC-3 cells
[10] = biological target: T1, human CD47 on the surface of cells …; assay: flow cytometry, FITC-mCO-1 on H4 cells
Experimental: as §1

[11] = biological target: T1, human CD47 on the surface of cells …; assay: flow cytometry, FITC-mCO-1 on Reh cells
[12] = biological target: T1, human CD47 on the surface of cells …; assay: flow cytometry, FITC-mCO-1 on Raji cells
[13] = biological target: T1, human CD47 on the surface of cells …; assay: flow cytometry, FITC-mCO-1 on MOLT-4 cells
[14] = biological target: T1, human CD47 on the surface of cells …; assay: flow cytometry, FITC-mCO-1 on human RBCs (FIG. 1E)
Experimental: as §1

[15] = biological target: T1, human CD47 on the surface of cells …; assay: flow cytometry, FITC-mCO-1 on K-562 cells
Experimental: as §1

[16] = biological target: T1, human CD47 on the surface of cells …; assay: flow cytometry on human RBCs (same experiment as paragraph 345, printed more exactly)
[17] = biological target: T1, human CD47 on the surface of cells …; assay: flow cytometry, FITC-mCO-1 on HL-60 cells
[18] = biological target: T1, human CD47 on the surface of cells …; assay: flow cytometry, FITC-mCO-1 on U-118-MG cells
Experimental: as §1

[19] = biological target: T1, human CD47 on the surface of cells …; assay: flow cytometry, FITC-mCO-1 on SUP-T1 cells
Experimental: as §1

[20] = biological target: T1, human CD47 on the surface of cells …; assay: flow cytometry, FITC-mCO-1 on SW780 cells
[21] = biological target: T2, recombinant CD47 (recCD47), SinoBiological 12283-H27H-B, biotinylated (human, UniProt Q08722 19-139, biotinylated (AVI-tag)); assay: SPR Biacore S200, multi-cycle (top 50 nM), recCD47 on SA chip 1330 RU, 1:1 model; * off-rate difficult to determine
T2 construct: Bought protein, 17 kDa; At 17 kDa it can only be a part of it; also called recombinant biotinylated CD47; not shown: C-terminal His- and AVI-tag

[22] = biological target: T2, recombinant CD47 (recCD47), …; assay: SPR Biacore S200, multi-cycle (top 50 nM), recCD47 on SA chip 1330 RU, 1:1 model
[23] = biological target: T2, recombinant CD47 (recCD47), …; assay: SPR Biacore S200, single-cycle, recCD47 on SA chip 700 RU, antibody as analyte, 25 C, 1:1 model
[24] = biological target: T2, recombinant CD47 (recCD47), …; assay: SPR Biacore S200, single-cycle (top 80 nM), recCD47 on SA chip 1330 RU, 1:1 model; * off-rate difficult to determine
[25] = biological target: T2, recombinant CD47 (recCD47), …; assay: SPR Biacore S200, multi-cycle (top 50 nM), recCD47 on SA chip 1330 RU, antibody as analyte, 1:1 model
[26] = biological target: T2, recombinant CD47 (recCD47), …; assay: SPR Biacore S200, single-cycle (top 80 nM), recCD47 on SA chip 1330 RU, antibody as analyte, 1:1 model
[27] = biological target: T1, human CD47 on the surface of cells …; assay: flow cytometry, FITC-conjugated antibody on CCRF-CEM cells
Experimental: as §1
4-parameter curve fitting was performed using GraphPad Prism

[28] = biological target: T2, recombinant CD47 (recCD47), …; assay: SPR Biacore S200, single-cycle (top 80 nM), recCD47 on SA chip 1330 RU, 1:1 model

T2 sequence (Q08722 19-139 limits assumed): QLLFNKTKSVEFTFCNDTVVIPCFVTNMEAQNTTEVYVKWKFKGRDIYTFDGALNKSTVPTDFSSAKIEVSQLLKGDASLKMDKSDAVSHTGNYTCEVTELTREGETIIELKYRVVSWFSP
T1 sequence (Q08722 19-323 limits assumed): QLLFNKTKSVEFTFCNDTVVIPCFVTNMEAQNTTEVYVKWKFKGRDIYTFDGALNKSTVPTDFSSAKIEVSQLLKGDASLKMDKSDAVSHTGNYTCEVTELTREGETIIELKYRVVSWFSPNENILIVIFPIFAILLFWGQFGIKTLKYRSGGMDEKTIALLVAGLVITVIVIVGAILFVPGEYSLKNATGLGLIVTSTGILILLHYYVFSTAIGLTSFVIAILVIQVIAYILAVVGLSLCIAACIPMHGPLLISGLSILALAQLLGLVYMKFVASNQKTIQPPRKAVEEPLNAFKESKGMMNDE

B1: murine CO-1 (mCO-1) antibody (antibody, V domains shown)
VH: QIQLVQSGPELKKPGETVKISCKASGYTFTNFGMHWVKQAPGKGLKWMGWINTYTGEPTYTDDFKGRFAFSLETSASTAYLQINSLKNEDTATFFCTRGDYRYGDSWGQGTTLTVSS
VL: DVVMTQTPLSLPVSLGDQASISCRSSQSLVHSNGKTYLHWYLQKPGQSPKLLIYRVSNRFSGVPDRFSGSGSGTDFTLKISRIEAEDLGVYFCSQSTHVPFTFGSGTKLEIK
notes: Full length mouse IgG1 kappa antibody from a hybridoma
B1 was tested, and the EC50 [1] was 286 ng/mL, the EC50 [2] was 1170 ng/mL and the EC50 [3] was 786 ng/mL. It also gave an EC50 [4] of 1.08 ng/mL, an EC50 [5] of 900 ng/mL and an EC50 [6] of 2990 ng/mL. The EC50 [7] was 2400 ng/mL, the EC50 [8] was 3500 ng/mL and the EC50 [9] was 55.3 ng/mL. It also gave an EC50 [10] of 2460 ng/mL, an EC50 [11] of 2800 ng/mL and an EC50 [12] of 26.7 ng/mL. For the same binder, the EC50 [13] was 10.6 ng/mL, the EC50 [14] was 40 ng/mL and the EC50 [15] was 354 ng/mL. It also gave an EC50 [16] of 44 ng/mL, an EC50 [17] of 592 ng/mL and an EC50 [18] of 404 ng/mL. It also gave an EC50 [19] of 4.25 ng/mL and an EC50 [20] of 334 ng/mL.

B2: CO-1.1 antibody (chimeric CO-1 IgG1) (antibody)
heavy: not shown
light: DVVMTQTPLSLPVSLGDQASISCRSSQSLVHSNGKTYLHWYLQKPGQSPKLLIYRVSNRFSGVPDRFSGSGSGTDFTLKISRIEAEDLGVYFCSQSTHVPFTFGSGTKLEIKRTVAAPSVFIFPPSDEQLKSGTASVVCLLNNFYPREAKVQWKVDNALQSGNSQESVTEQDSKDSTYSLSSTLTLSKADYEKHKVYACEVTHQGLSSPVTKSFNRGEC
notes: Chimeric: mouse variable domains of mCO-1 with human IgG1 constant regions; also called SC-CO-1; MC-CO-1
With B2 the Kd [21] was 0.04 pM, the Kd [22] was < 1 pM and the koff [23] was 4.7e-06 s⁻¹. For the same binder, the kon [23] was 1.4e+06 M⁻¹ s⁻¹, the Kd [24] was < 1 pM and the kon [25] was 900000 M⁻¹ s⁻¹. For the same binder, the kon [26] was 500000 M⁻¹ s⁻¹, the EC50 [27] was 0.0283 ng/mL and the Kd [28] was < 1 pM.
